# From the DeepSol protein solubility set
# Assay: soluble on expression in E. coli; label from the status in PepcDB or PDB records
row,Sequence,soluble on expression in E. coli
1,AHHHHHHGSQHPRKIYFVDTSFLTFLSVKFSKNMERLMENTVFIELLRRGKGVNYALGKNWGIDFVLLIKVSYDVSDEGTLRCEVNALRKVSREFDFKNALLITWNSKRRIEREEL,soluble
2,AHHHHHHGSRFLIRLVPEDKDRAFKVPYNHQYYLQGLIYNAIKSSNPKLATYLHEVKGPKLFTYSLFMAEKREHPKGLPYFLGYKKGFFYFSTCVPEIAEALVNGLLMNPEVRLWDERFYLHEIKVLREPKKFNGSTFVTLSPIAVTVVRKGKSYDVPPMEKEFYSIIKDDLQDKYVMAYGDKPPSEFEMEVLIAKPKRFRIKPGIYQTAWHLVFRAYGNDDLLKVGYEVGFGEKNSLGFGMVKVEGNKTTKEAEEQEKITFNSREELKTGV,not soluble
3,AHHHHHHGSSNIVKGIVKWVEGEQFIGGIEGENCSVILGEGGISPMKLLLLSVAGCTAYDVVMILRKMREPIRGLRVEIEGVRREEHPRVYKEVTIHYKIYGKVDEKKARRAIELSQEKYCSASAHLKLGGTIVRYTLEIFDDEPPSHAEG,soluble
4,AIAASSDVLRQPDKNARPLALSGHVGFDSLPDQLVNKSTSQGFCFNILCIGETGIGKSTLMDTLFNTNFENFESSHFEPKVKLRAQTYDLQESNVRLKLTVVNTVGFGDQMNKQESYQHIVDYIDTQFESYLQEELKIKRSLHNYHDSRIHACLYFIAPSGHSLKSLDLVTMKKLDSKVNIIPVIAKADTISKSELHKFKIKIMSELVSNGVQIYQFPIDDETVAKINTAMNGHLPFAVVGSTEEVNIGNKMVKARQYPWGVVQVENENHCDFVKLREMLICVNMEDLREQTHTRHYELYRRCKLEEMGFKDTDPECKPVSLQQTYEAKRQEFLGELQRREEEMRQTFVQRVKEKEAELKDAERELQGKFEQLKRLHADEKSKLEEKRRSLEEEMSVFSKRKAATELLQAQSFNTSTNNKKDKDRKNSGFM,soluble
5,AIAATSELSCEVSEENCERREAFWAEWKDLTLSTRPEEGCSLHEEDTQRHETYHQQGQCQVLVQRSPWLMMRMGILGRGLQEYQLPYQRVLPLPIFTPAKMGATKEEREDTPIQLQELLALETALGGQCVDRQEVAEITKQLPPVVPVSKPGALRRSLSRSMSQEAQRG,soluble
6,AIADEVKECLRDFPKEARELYLNDAVPYLDEPLSPLQFYRDWIGPNKPCIIRNAFNDWPALSKWNPTYLREKVGSKVISVAVTPNGFADAVNGNRFVMPEERQMSFSSLLDIVEGKIKSSAVFYVQKQCSNLMEEIPELTGDVQTHIPWMSEALGKLPDAVNFWLGEESAVTSMHKDHYENLYCVISGQKEFILLPPTDRPFIPYELYQPATYRQKDDGTFEIVDEENSPKVPWIPLDPLKPDFERFPSYRHAKALHCTVKAGEMLYLPSLWFHHVRQSHGCIAVNFWYDMEYDIKYNYFQLVEALTNAVGSL,soluble
7,AIADIEVDIIEFKVPLENNKTIFIWDIQPTFTEAYIYESLWSVYSAFGDLYLLKVCPNATVAEPGFYALVKFYSSAQASKAQRATDKQCLFQSSPLKVRLSTKQNLSFYSSKPLCLSKCHNLANHYLGFGGWTTRIVTLKDLSNCVDAGCQEETGDQGVLLKYGCIMELSFPHHGMSCQGVGVAEEVLDSDQDPEEKLRKRGALMKRAKDKAMEVAFEKVLLLILGNGKVAIEIKIDPDEIVPEENSERVIKVNDISWTHIESADSNAEEDFLWDLTEDLPY,soluble
8,AIAGSRGVLSIIFDLDNTLIDTAGAGRTAIQKVCELLKSTHVQESHIRDICERFLRKLLQESFDPSEGKTIDDVRIQHWCEALQETPGTDPDPALASRCYYTWKNTRSQALSLSSEVRALLEELQKNYKLLLLTNGDTQTQREKIEAVRCEGLFSLVVVGGDRPEQKPARSIFTHCFESAGVRPQDCIMVGDSLTTDIQGGINAGVRATVWINAGSKSLPQDSVTPDYTLPTVLHLNEVLAQLA,soluble
9,AIAGTAFPTMAEVVAEVAEMPTQMSPGAVEMSTPMSAEMMEMSTEVTEMTPGEALASSLFFQHHQFMCSECGSLYNTLEEVLSHQEQHMLAVSEEEALTTQNVGLEPELVPGAEGPFQCGECSQLILSPGELLAHQDAHLRESANQIQYQCWDCQELFPSPELWVAHRKAQHLSATVAEPPVPPPLPPPTPLPPPSPPSEVKMEPYECPECSTLCATPEEFLEHQGTHFDSLEKEERNGLEEEEEDDEEDEEDDEEMEDEEAMAEVGDDAVGGDESTAGWAQGCGDCPQHQPSAGARRQHRRTAHSPASATHPFHCSQCQRSFSSANRLQAHGRAHVGGTHECTTCSKVFKKAASLEQHLRLHRGEARYLCVDCGRGFGTELTLVAHRRAHTANPLHRCRCGKTFSNMTKFLYHRRTHAGKSGAPPTGATAPPAPAEPTPPPPPPAPPAQLPCPQCSKSFASASRLSRHRRAVHGPPERRHRCGVCGKGFKKLIHVRNHLRTHTGERPFQCHSCGKTFASLANLSRHQLTHTGARPYQCLDCGKRFTQSSNLQQHRRLHLRPVAFARAPRLPITGLYNKSPYYCGTCGRWFRAMAGLRLHQRVHARARTLTLQPPRSPSPAPPPPPEPQQTIMCTELGETIAIIETSQPLALEDTLQLCQAALGASEAGGLLQLDTAFV,soluble
10,AIAIRTKQSEAKSKGDTLRQLELAALMTHCNMLITHQQLALQAAMKLAYATKNYLYALAFAKRLLELAPNEEMERTAKKVMQFCERNPNNQNQLDYDIEQSNFAIDAGRLKPCIQPPTKSCVYCGACYDESWHSMTCVVCQVAQD,soluble
11,AIALVGPAPTTDGSAENTLNEKRLVHGSIAFWLGPRAPQTKTHRWTVYVRGARDPLEDLSLYIQKVEFVLHESFADPVRVVKEPPFCLTEHGWGEFEVIIRLFPISDPDKPVEMYHPLRLFPSVGQELTEKPVVSEHLDVLVFSQPAPEVERALHRSDVARMPSDCWGDLMPLFGGDLHQVEEEDLRKVQQARERVRQQIQATRLQYEALTAELARARTHALHRELS,soluble
12,AIAPAKSPSTRKKRARTKDEDEENVDTGNQTTAPTFRDKNLQLVHDFLASQNRPFSLQNILDSLANKGDMKKAALDKALTELVTSEYVTCKEYGKAKLYLIRQKNIALPSAEETAALDSRLETLANELEELSAECQVLEAKISELSAQPRTEEAKERVALLETETATIDERIEKLQVHCAGYDSSRRQYIQQQHERALKALRLRRSRARQIILQMAEGMERKPRELADEIGIESDSDDWLTASRSVVSNARSKAAV,soluble
13,AIAREWKSQDAWKQHSLRLCFGVWPGTEFLHRPRAVHRRSGVVCSQMQTEDSHPETPQVPKESLQEEKDSSPATDASFIQSQDGKTVFLDRRTERRIQRGFVLTERGPRSIWKPAGTSSQRNERVPRRAAARGGAGPPDTTPQLATVRVLVLGANHVAQRLAELLSSHSRVCGCYFVSETTDEAAIESMKKYAYALPLRSALNDDEVVRVAEWVLADYVFLVPTGETHDDGVSLKDKERLERTLAQNRVTFMDENLTGLLLENPSLIDALFRARDSLEA,soluble
14,AIASDEPKLSERSLHKFENVRIIIKDENKTCFQGELNIGEDWFCLLSEIDPSNSLRVNAKDLLLHAICQRDEHCEKPSIYCQVQGESDEDQYETIYIVPEESSQVEKIFETFCDLVRRTPVPLTDEEGSDGEWYGNVPWSVGNCDSEQFEDAEETDTQL,soluble
15,AIASGAYDESAMSDETTDSFWEVGNYKRTVKRIEDGHRLCNDMMSCIQERAKIEKAYSQQLTDWSKRWRQLVERGPQYGTLERAWLAVMTEAEKVSELHQEVKNNLLNEDLEKVKNWQKDAYHKQMMGGFKETKEADEGFRKAQKPWAKKLKELETAKKTYHMACKEEKIASAREANSKGEASVTTDQQKKLQEKVDKCKNDVQKAKEKYEKSLDELNKCTPQYMENMEVVFDQCQQFEEKRLNFLREVLLDTKRHLNLTESQSYATVYRELERTIVSASAQEDLKWFSSVHGPGMHMNWPQFEEFNPDLSHAISKKEKVKRNHDGVTLTQVTHGAEHGTPQTGDRGSVSSYEKNQQYSAEWSDDEQPPTAAQSASETNGGNPFEEDSKGVRVRALYDYEGQEQDELTFKAGDELTKLEDEDEQGWCKGRLDSGQLGLYPANYVEPV,soluble
16,AITGIFFGSDTGNTENIAKMIQKQLGKDVADVHDIAKSSKEDLEAYDILLLGIPTWYYGEAQCDWDDFFPTLEEIDFNGKLVALFGCGDQEDYAEYFCDALGTIRDIIEPRGATIVGHWPTAGYHFEASKGLADDDHFVGLAIDEDRQPELTAERVEKWVKQISEELHLDEILNA,soluble
17,AKADSEQGNGEDKGTGTKGDGTGRGEGSGKGSGGVKGEHGEGAGSSKGNPLRANGSIPRPAYPTLSMENDEQGTVVLSVLVSPGGHVESVKIVKSSGFSRLDNAARKAAQNGHFQANAWTEFKVPVKFELN,soluble
18,AKYYNEPCHTFNEYLLIPGLSTVDCIPSNVNLSTPLVKFQKGQQSEINLKIPLVSAIMQSVSGEKMAIALAREGGISFIFGSQSIESQAAMVHAVKNFKDSQKRYLVGAGINTRDFRERVPALVEAGADVLCIDSSDGFSEWQKITIGWIRDKYGDKVKVGAGNIVDGEGFRYLADAGADFIKIGIGGGSICITREQKGIGRGQATAVIDVVAERNKYFEETGIYIPVCSDGGIVYDYHMTLALAMGADFIMLGRYFARFEESPTRKVTINGSVMKEYWGEGSSRARNWQRYDLGGKQKLSFEEGVDSYVPYAGKLKDNVEASLNKVKSTMCNCGALTIPQLQSKAKITLVSSVSIVEGGAHDVIVKDRINDYHPK,soluble
19,AMACWAQSQGYNCCNNPSSTKVEYTDASGQWGVQNGQWCGIDYSYGQNQGNESCTGNGSYPCCNTCQATYTDGDGDWAFENGNWCGIKNSCKQQPQNNNQ,soluble
20,AMASASLCFLETENISKMAQILVDRCVEITNASFGFLYELVFGGDARILAVSSTAAVPAGGLCAQVKGHIEREGFFLVTPSDGLLFEPVKAGTTVLTNNPTTLDHLICRDSGNLGQINSFLGTPLKVGSRVVGMIGLTDRPDGFTDMERREIEAFAQTAALALHSARAEIEHKK,not soluble
21,AMDIRQVTETIAMIEEQNFDIRTITMGISLLDCIDPDINRAAEKIYQKITTKAANLVAVGDEIAAELGIPIVNKRVSVTPISLIGAATDATDYVVLAKALDKAAKEIGVDFIGGFSALVQKGYQKGDEILINSIPRALAETDKVCSSVNIGSTKSGINMTAVADMGRIIKETANLSDMGVAKLVVFANAVEDNPFMAGAFHGVGEADVIINVGVSGPGVVKRALEKVRGQSFDVVAETVKKTAFKITRIGQLVGQMASERLGVEFGIVDLSLAPTPAVGDSVARVLEEMGLETVGTHGTTAALALLNDQVKKGGVMACNQVGGLSGAFIPVSEDEGMIAAVQNGSLNLEKLEAMTAICSVGLDMIAIPEDTPAETIAAMIADEAAIGVINMKTTAVRIIPKGKEGDMIEFGGLLGTAPVMKVNGASSVDFISRGGQIPAPIHSFKN,soluble
22,ANIQSFSFKNFNSPSFILQGDATVSSGKLQLTKVKENGIPTPSSLGRAFYSSPIQIYDKSTGAVASWATSFTVKISAPSKASFADGIAFALVPVGSEPRRNGGYLGVFDSDVYNNSAQTVAVEFDTLSNSGWDPSMKHIGIDVNSIKSIATVSWDLANGENAEILITYNAATSLLVASLVHPSRRTSYILSERVDITNELPEYVSVGFSATTGLSEGYIETHDVLSWSFASKLPDDSTAEPLDLASYLVRNVL,soluble
23,APQGINQFALLLNKQDTLTEFDTLVPGRFQAMRDGTRVTYTEELSKDRGELAGIFISQKDLNSSNQERGISILVAEKGTQNIQADGSRYLILHNGYRYDGNPGQANYRAIQYDTYGVMLPKPEASSEVSERDAVPTADLFGSDNPRYQAELQWR,not soluble
